# Measured values taken from patent US20210347858A1.
# Biological target: human ACE2 receptor protein (hACE2) pre-coated on the plate of the GenScript sVNT C-Pass Kit (human) (UniProt Q9BYF1)
# Assay: modified GenScript sVNT (FIG. 28), competitor HRP-RBD
# Sequence of UniProt Q9BYF1 (Q9BYF1 18-740 limits assumed): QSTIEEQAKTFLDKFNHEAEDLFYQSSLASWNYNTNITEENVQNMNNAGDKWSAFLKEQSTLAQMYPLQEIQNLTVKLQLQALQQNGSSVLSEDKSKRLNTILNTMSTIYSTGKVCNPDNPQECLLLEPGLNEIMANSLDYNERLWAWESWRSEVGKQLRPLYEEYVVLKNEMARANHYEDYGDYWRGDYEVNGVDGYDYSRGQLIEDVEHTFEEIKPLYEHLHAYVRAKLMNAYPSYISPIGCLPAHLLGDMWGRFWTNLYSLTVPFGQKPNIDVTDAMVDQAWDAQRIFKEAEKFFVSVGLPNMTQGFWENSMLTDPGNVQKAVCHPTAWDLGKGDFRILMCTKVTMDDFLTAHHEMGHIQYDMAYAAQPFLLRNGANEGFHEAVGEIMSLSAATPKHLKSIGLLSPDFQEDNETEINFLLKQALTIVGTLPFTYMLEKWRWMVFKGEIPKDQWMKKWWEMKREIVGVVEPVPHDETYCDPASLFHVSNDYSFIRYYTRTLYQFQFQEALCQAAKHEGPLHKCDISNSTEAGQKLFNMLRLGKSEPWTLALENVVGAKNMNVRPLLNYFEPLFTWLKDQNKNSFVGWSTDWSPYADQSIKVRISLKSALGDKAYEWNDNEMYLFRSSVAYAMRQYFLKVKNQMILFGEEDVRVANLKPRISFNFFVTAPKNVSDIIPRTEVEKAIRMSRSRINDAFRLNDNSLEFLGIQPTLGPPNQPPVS
substance,measurement,value
Serum from uninoculated (non-targeted) chickens (antibody),percent inhibition of RBD:ACE2 binding,< 5%
